Experimental data as given in patent US20130011378A1, “Stable formulations of a hyaluronan-degrading enzyme” (priority 2011, published 2013).

Test: RP-HPLC: insulin apparent solubility / percent recovery
Conditions: 7 days at 2-8° C.
Method in brief: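 Vial samples withdrawn at each time point, centrifuged, held at 4 °C, run in duplicate by RP-HPLC. Apparent solubility = combined insulin main and desamido peak areas as percent versus standards/initial formulation; purity = main insulin peak as percent of all insulin species.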

## regular insulin: mature human insulin, SEQ ID NOS: 103 and 104
0.2% methylparaben + […] m-cresol, pH 6.6, NaCl 50 mM
  Solubility of regular Insulin, % remaining of the original concentration: 15.3%
0.2% methylparaben + […] m-cresol, pH 6.6, NaCl 80 mM
  Solubility of regular Insulin, % remaining of the original concentration: 9.0%
0.2% methylparaben + […] m-cresol, pH 6.6, NaCl 140 mM
  Solubility of regular Insulin, % remaining of the original concentration: 5.8%
0.2% methylparaben + […] m-cresol, pH 6.8, NaCl 50 mM
  Solubility of regular Insulin, % remaining of the original concentration: 34.1%
0.2% methylparaben + […] m-cresol, pH 6.8, NaCl 110 mM
  Solubility of regular Insulin, % remaining of the original concentration: 11.4%
0.2% methylparaben + […] m-cresol, pH 7.0, NaCl 50 mM
  Solubility of regular Insulin, % remaining of the original concentration: 86.9%
0.2% methylparaben + […] m-cresol, pH 7.0, NaCl 80 mM
  Solubility of regular Insulin, % remaining of the original concentration: 46.6%
0.2% methylparaben + […] m-cresol, pH 7.0, NaCl 140 mM
  Solubility of regular Insulin, % remaining of the original concentration: 15.9%
0.2% methylparaben + […] m-cresol, pH 7.2, NaCl 80 mM
  Solubility of regular Insulin, % remaining of the original concentration: 90.6%
0.2% methylparaben + […] m-cresol, pH 7.2, NaCl 110 mM
  Solubility of regular Insulin, % remaining of the original concentration: 47.1%
0.2% methylparaben + […] m-cresol, pH 7.2, NaCl 140 mM
  Solubility of regular Insulin, % remaining of the original concentration: 32.9%
0.2% methylparaben + […] m-cresol, pH 7.4, NaCl 50 mM
  Solubility of regular Insulin, % remaining of the original concentration: 98.1%
0.2% methylparaben + […] m-cresol, pH 7.4, NaCl 80 mM
  Solubility of regular Insulin, % remaining of the original concentration: 97.7%
0.2% methylparaben + […] m-cresol, pH 7.4, NaCl 110 mM
  Solubility of regular Insulin, % remaining of the original concentration: 94.6%
0.2% methylparaben + […] m-cresol, pH 7.4, NaCl 140 mM
  Solubility of regular Insulin, % remaining of the original concentration: 59.1%
0.2% methylparaben + […] m-cresol, pH 7.6, NaCl 50 mM
  Solubility of regular Insulin, % remaining of the original concentration: 98.1%
0.2% methylparaben + […] m-cresol, pH 7.6, NaCl 80 mM
  Solubility of regular Insulin, % remaining of the original concentration: 97.9%
0.2% methylparaben + […] m-cresol, pH 7.6, NaCl 140 mM
  Solubility of regular Insulin, % remaining of the original concentration: 95.4%
0.2% phenol + […] m-cresol, pH 6.6, NaCl 50 mM
  Solubility of regular Insulin, % remaining of the original concentration: 26.8%
0.2% phenol + […] m-cresol, pH 6.6, NaCl 80 mM
  Solubility of regular Insulin, % remaining of the original concentration: 8.7%
0.2% phenol + […] m-cresol, pH 6.6, NaCl 110 mM
  Solubility of regular Insulin, % remaining of the original concentration: 6.5%
0.2% phenol + […] m-cresol, pH 6.6, NaCl 140 mM
  Solubility of regular Insulin, % remaining of the original concentration: 5.8%
0.2% phenol + […] m-cresol, pH 6.8, NaCl 50 mM
  Solubility of regular Insulin, % remaining of the original concentration: 38.4%
0.2% phenol + […] m-cresol, pH 6.8, NaCl 80 mM
  Solubility of regular Insulin, % remaining of the original concentration: 17.1%
0.2% phenol + […] m-cresol, pH 6.8, NaCl 140 mM
  Solubility of regular Insulin, % remaining of the original concentration: 6.5%
0.2% phenol + […] m-cresol, pH 7.0, NaCl 50 mM
  Solubility of regular Insulin, % remaining of the original concentration: 100.3%
0.2% phenol + […] m-cresol, pH 7.0, NaCl 80 mM
  Solubility of regular Insulin, % remaining of the original concentration: 35.7%
0.2% phenol + […] m-cresol, pH 7.0, NaCl 110 mM
  Solubility of regular Insulin, % remaining of the original concentration: 17.7%
0.2% phenol + […] m-cresol, pH 7.0, NaCl 140 mM
  Solubility of regular Insulin, % remaining of the original concentration: 11.6%
0.2% phenol + […] m-cresol, pH 7.2, NaCl 80 mM
  Solubility of regular Insulin, % remaining of the original concentration: 92.2%
0.2% phenol + […] m-cresol, pH 7.2, NaCl 110 mM
  Solubility of regular Insulin, % remaining of the original concentration: 37.4%
0.2% phenol + […] m-cresol, pH 7.2, NaCl 140 mM
  Solubility of regular Insulin, % remaining of the original concentration: 18.9%
0.2% phenol + […] m-cresol, pH 7.4, NaCl 80 mM
  Solubility of regular Insulin, % remaining of the original concentration: 99.2%
0.2% phenol + […] m-cresol, pH 7.4, NaCl 110 mM
  Solubility of regular Insulin, % remaining of the original concentration: 87.8%
0.2% phenol + […] m-cresol, pH 7.4, NaCl 140 mM
  Solubility of regular Insulin, % remaining of the original concentration: 40.6%
0.2% phenol + […] m-cresol, pH 7.6, NaCl 80 mM
  Solubility of regular Insulin, % remaining of the original concentration: 99.2%
0.2% phenol + […] m-cresol, pH 7.6, NaCl 110 mM
  Solubility of regular Insulin, % remaining of the original concentration: 98.5%
0.2% phenol + […] m-cresol, pH 7.6, NaCl 140 mM
  Solubility of regular Insulin, % remaining of the original concentration: 82.2%
[…] phenol + […] m-cresol, pH 6.6, NaCl 50 mM
  Solubility of regular Insulin, % remaining of the original concentration: 31.2%
[…] phenol + […] m-cresol, pH 6.6, NaCl 80 mM
  Solubility of regular Insulin, % remaining of the original concentration: 18.6%
[…] phenol + […] m-cresol, pH 6.6, NaCl 140 mM
  Solubility of regular Insulin, % remaining of the original concentration: 12.9%
[…] phenol + […] m-cresol, pH 6.8, NaCl 50 mM
  Solubility of regular Insulin, % remaining of the original concentration: 66.6%
[…] phenol + […] m-cresol, pH 6.8, NaCl 80 mM
  Solubility of regular Insulin, % remaining of the original concentration: 24.9%
[…] phenol + […] m-cresol, pH 7.0, NaCl 50 mM
  Solubility of regular Insulin, % remaining of the original concentration: 96.7%
[…] phenol + […] m-cresol, pH 7.0, NaCl 80 mM
  Solubility of regular Insulin, % remaining of the original concentration: 80.8%
[…] phenol + […] m-cresol, pH 7.0, NaCl 110 mM
  Solubility of regular Insulin, % remaining of the original concentration: 32.9%
[…] phenol + […] m-cresol, pH 7.0, NaCl 140 mM
  Solubility of regular Insulin, % remaining of the original concentration: 17.1%
[…] phenol + […] m-cresol, pH 7.2, NaCl 80 mM
  Solubility of regular Insulin, % remaining of the original concentration: 96.4%
[…] phenol + […] m-cresol, pH 7.2, NaCl 110 mM
  Solubility of regular Insulin, % remaining of the original concentration: 58.7%
[…] phenol + […] m-cresol, pH 7.2, NaCl 140 mM
  Solubility of regular Insulin, % remaining of the original concentration: 33.1%
[…] phenol + […] m-cresol, pH 7.4, NaCl 50 mM
  Solubility of regular Insulin, % remaining of the original concentration: 96.7%
[…] phenol + […] m-cresol, pH 7.4, NaCl 80 mM
  Solubility of regular Insulin, % remaining of the original concentration: 97.3%
[…] phenol + […] m-cresol, pH 7.4, NaCl 110 mM
  Solubility of regular Insulin, % remaining of the original concentration: 94.2%
[…] phenol + […] m-cresol, pH 7.4, NaCl 140 mM
  Solubility of regular Insulin, % remaining of the original concentration: 57.9%
[…] phenol + […] m-cresol, pH 7.6, NaCl 50 mM
  Solubility of regular Insulin, % remaining of the original concentration: 97.2%
[…] phenol + […] m-cresol, pH 7.6, NaCl 80 mM
  Solubility of regular Insulin, % remaining of the original concentration: 97.1%
[…] phenol + […] m-cresol, pH 7.6, NaCl 110 mM
  Solubility of regular Insulin, % remaining of the original concentration: 97.1%
[…] phenol + […] m-cresol, pH 7.6, NaCl 140 mM
  Solubility of regular Insulin, % remaining of the original concentration: 91.7%
